Assay [1] deals with T1, Axl protein (human, UniProt P30530 26-451).
T1 construct: extracellular domain; also called human Axl; hAxl
T1 sequence (looked up): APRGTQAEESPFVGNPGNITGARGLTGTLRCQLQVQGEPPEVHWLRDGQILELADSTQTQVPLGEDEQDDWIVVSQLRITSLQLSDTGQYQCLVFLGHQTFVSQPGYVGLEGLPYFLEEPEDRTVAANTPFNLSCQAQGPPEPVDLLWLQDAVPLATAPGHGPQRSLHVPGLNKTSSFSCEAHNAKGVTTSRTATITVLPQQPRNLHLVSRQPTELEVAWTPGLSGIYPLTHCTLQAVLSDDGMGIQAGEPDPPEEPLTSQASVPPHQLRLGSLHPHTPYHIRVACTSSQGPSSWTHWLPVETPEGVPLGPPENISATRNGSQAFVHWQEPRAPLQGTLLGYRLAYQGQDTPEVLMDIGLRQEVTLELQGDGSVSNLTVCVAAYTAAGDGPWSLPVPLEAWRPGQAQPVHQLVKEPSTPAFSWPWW
As to the kind of experiment: ELISA, 1:9 dilution, pH 6.0 over pH 7.4.

For assay [2], the target named is T1, Axl protein. Kind of assay: ELISA, 1:3 dilution, pH 6.0 over pH 7.4. A general note: An ELISA detects its analyte on a solid surface through an enzyme-linked reagent.

Changes are numbered by the printed parent chain. Names and notes keep the numbering of the source.

B1: LC-P095V (antibody, V domains shown)
VH: EVQLVQSGAEVKKPGATVKISCKVSGYSFTGHTMNWIRQPPGKGLEWIGLIKPSNGGTSYNQKFKGRVTISADKSISTAYLQWSSLKASDTAMYYCAHGHYESYFAMDYWGQGTLVTVSS
VL: DIQMTQSPSSLSASVGDRVTITCKASQDVSSAVAWYQQKPGQAPRLLIYWASTRHTGVPSRFSGSGSGTEFTLTISSLQPDDFATYYCQEHFSTVLTFGQGTKVEIK
In the case of B1, in the assay with Axl protein [1], the “Affinity ELISA CPE mutant ratio (1:9, pH 6.0/7.4)” value worked out at 2.13 ratio. In addition, the “Affinity ELISA CPE mutant ratio (1:3, pH 6.0/7.4)” value with Axl protein [2] was found to be 1.87 ratio.

B2: LC-P095W (antibody, V domains shown)
VH: B1 VH
VL: B1 VL with V95W
For the molecule B2, the “Affinity ELISA CPE mutant ratio (1:9, pH 6.0/7.4)” value in the assay with Axl protein [1] is 2.26 ratio. In the assay with Axl protein [2], the “Affinity ELISA CPE mutant ratio (1:3, pH 6.0/7.4)” value was determined as 2.15 ratio.

B3: LC-T097I (antibody, V domains shown)
VH: B1 VH
VL: B1 VL with V95P, T97I
As to B3, the “Affinity ELISA CPE mutant ratio (1:9, pH 6.0/7.4)” value in the assay with Axl protein [1] stood at 4.05 ratio. For the same molecule, in the assay with Axl protein [2], the “Affinity ELISA CPE mutant ratio (1:3, pH 6.0/7.4)” value was determined as 3.09 ratio.

The values above are taken from patent publication US20190177417A1 (BIOATLA, published 2019).
